Data reported in patent US20260139017A1 (GENERAL HOSPITAL, published 2026).
Substitutions are numbered along the chain they refer to. In names and notes the source's numbering stands. Each block holds one binder with its values, some of them ahead of it.

Legend:
[1] = target: Amyloid beta (Abeta42; beta-Amyloid (1-42)) (UniProt P05067 672-713); test: cell-based or functional assay
[2] = target: T1, ApoEr2 (TP320903, OnGene) (UniProt Q14114 33-963, limits assumed); test: ELISA on coated receptor
T1 sequence (looked up): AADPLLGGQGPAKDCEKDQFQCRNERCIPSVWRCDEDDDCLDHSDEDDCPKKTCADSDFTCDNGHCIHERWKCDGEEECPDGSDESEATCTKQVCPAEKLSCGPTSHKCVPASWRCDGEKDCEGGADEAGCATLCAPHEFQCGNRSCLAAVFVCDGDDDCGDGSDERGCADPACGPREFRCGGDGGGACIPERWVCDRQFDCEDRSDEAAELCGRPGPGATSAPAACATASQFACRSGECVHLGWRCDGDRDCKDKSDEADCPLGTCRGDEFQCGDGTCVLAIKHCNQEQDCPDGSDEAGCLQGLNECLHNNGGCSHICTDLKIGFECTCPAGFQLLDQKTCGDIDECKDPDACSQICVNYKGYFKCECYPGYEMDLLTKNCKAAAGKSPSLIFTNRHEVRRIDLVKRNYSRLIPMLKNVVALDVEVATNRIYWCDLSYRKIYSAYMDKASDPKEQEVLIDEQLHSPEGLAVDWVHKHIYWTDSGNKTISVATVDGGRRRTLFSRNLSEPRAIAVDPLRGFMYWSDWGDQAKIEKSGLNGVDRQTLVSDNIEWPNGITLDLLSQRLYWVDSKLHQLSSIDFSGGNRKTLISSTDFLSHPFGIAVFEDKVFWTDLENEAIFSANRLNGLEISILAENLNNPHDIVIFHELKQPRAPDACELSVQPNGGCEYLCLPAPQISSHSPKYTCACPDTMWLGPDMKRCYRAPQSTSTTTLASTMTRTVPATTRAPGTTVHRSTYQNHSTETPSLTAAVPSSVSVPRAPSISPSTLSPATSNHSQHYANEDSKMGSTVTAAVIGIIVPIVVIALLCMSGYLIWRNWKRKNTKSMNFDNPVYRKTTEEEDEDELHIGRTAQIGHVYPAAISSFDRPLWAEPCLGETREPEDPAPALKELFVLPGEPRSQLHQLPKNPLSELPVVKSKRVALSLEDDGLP
Method: (§1) Enzyme-linked immunosorbent assay (ELISA) was used to quantify changes in binding of RELN variants (media-derived full-length or CTR-RELN) to either VLDLr or ApoEr2 following an optimized version of a previously published protocol (6). Briefly, ELISA strips (DY008, R&D Systems) were coated with one ng/μL (100 μL/well) of VLDLr (8444-VL, R&D) or ApoEr2 (TP320903, OnGene) receptors diluted in 25 mM Tris HCl, 140 mM NaCl, […], two mM CaCl₂), pH 7.4 (TBS-C buffer). After 18 h at four ° C. incubation, plates were blocked one h with three % BSA (22070008-6, Bioworld), 0.05% Tween-20 (Sigma Aldrich) TBS-C buffer. We assessed binding via incubation with 100 μL/well of serial dilutions of recombinant RELN protein (Ser1221-Gln2666, 8546-MR-050, R&D) or RELN variants in TBS-C buffer for one hour at room temperature. For detection, we used goat anti-mouse RELN primary antibody (LS-C793521-100, LS-Bio, 1:2,000, 100 μL/well) as primary antibody for one h at R.T. and (1:10,000; 100 μL/well, donkey anti-goat IgG H&L, HRP, ab6885, Abcam) as secondary antibody for 30 min. at R.T. Between each of the previous steps, plates were washed four times with TBS-C buffer (200 μL/well). Plates were washed three times prior to initiating the colorimetric reaction (DY008, R&D Systems). Stop solution (50 μL/well, DY008, R&D Systems) was added upon five min. incubation and the absorbance of the samples was measured at 450 nm using the Synergy 2 microplate reader (BioTek Instruments). Processing and analysis of the data was done using Gen5 1.11 software and GraphPad Prism, respectively.

VLDLr (8444-VL, R&D) = VLDLr (8444-VL, R&D) (UniProt P98155 28-797, limits assumed); test: ELISA on coated receptor
Method: as §1

[3] = target: T2, Neuropilin 1 (NRP1), R&D 3870-N1-025 (UniProt O14786-2 22-644, biotinylated at a 1:2 molar ratio); test: BLI (Octet), biotinylated NRP1 on SA biosensor, 1:1 global fit
T2 construct: Biotinylated and immobilised on streptavidin biosensor tips; also called Neurophilin 1
T2 sequence (looked up): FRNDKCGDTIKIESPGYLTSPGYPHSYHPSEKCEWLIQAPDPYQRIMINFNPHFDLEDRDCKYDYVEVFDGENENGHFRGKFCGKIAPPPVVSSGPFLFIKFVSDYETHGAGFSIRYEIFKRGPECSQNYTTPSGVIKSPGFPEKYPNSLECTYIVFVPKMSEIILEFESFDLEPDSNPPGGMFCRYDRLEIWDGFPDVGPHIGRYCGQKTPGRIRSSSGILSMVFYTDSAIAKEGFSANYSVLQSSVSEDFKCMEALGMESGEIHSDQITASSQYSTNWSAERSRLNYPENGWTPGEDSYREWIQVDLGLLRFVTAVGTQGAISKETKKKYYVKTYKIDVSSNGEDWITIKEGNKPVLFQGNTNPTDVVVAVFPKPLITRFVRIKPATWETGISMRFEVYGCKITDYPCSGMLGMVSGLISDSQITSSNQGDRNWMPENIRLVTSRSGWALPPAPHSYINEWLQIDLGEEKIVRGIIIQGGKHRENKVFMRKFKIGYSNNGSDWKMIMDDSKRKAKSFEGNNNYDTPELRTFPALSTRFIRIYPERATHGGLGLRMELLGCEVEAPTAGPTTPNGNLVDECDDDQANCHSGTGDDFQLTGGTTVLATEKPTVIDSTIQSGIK
Method: (§2) Bio-layer interferometry (BLI) was used to assess NRP1-protein kinetics at 30° C. and 1000 rpm agitation using previously published methods. 1 mg/mL NRP1 (R&D 3870-N1-025) was biotinylated at a 1:2 molar ratio, desalted, and immobilized on the SA biosensor tip (Pall ForteBio) surface. This was followed by 1) 180 seconds baseline buffer diluent, 2) loading of the ligand (NRP1), 3) 180 seconds baseline buffer diluent, 4) 240 seconds association (analyte), and 5) 300 seconds disassociation in assay buffer. Assay buffer: SD Buffer (pH7.4 PBS, 0.05% tween20, 0.01% BSA).
(§3) The experimental data were fit with the 1:1 binding model and analyzed with global fitting using Octet Data Analysis software to calculate KD.

[4] = target: T2, Neuropilin 1 (NRP1), R&D 3870-N1-025; test: BLI, NRP1 on biosensor
Method: as §2, §3

Amyloid beta (Abeta42; beta-Amyloid (1-42)), sequence (P05067 672-713 limits assumed): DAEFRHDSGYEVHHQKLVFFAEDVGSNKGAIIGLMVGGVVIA

B1: C-terminal region of RELN (CTR-RELN) WT recombinant peptide, long (peptide)
peptide: RKQNYMMNFSRQHGLRHFYNRRRRSLRRYP
notes: also called WT long; C-terminal RELN WT uncleaved
- binding result [2]: no binding
- binding result (VLDLr (8444-VL, R&D)): no binding

B3: Fc-fusion CTR-RELN WT (184I pfcn-huIgG2-C-termH3447WT) (Fc fusion)
chain: APLERKSSVECPPCPAPPVAGPSVFLFPPKPKDTLMISRTPEVTCVVVDVSHEDPEVQFNWYVDGVEVHNAKTKPREEQFNSTFRVVSVLTVVHQDWLNGKEYKCKVSNKGLPAPIEKTISKTKGQPREPQVYTLPPSREEMTKNQVSLTCLVKGFYPSDIAVEWESNGQPENNYKTTPPMLDSDGSFFLYSKLTVDKSRWQQGNVFSCSVMHEALHNHYTQKSLSLSPGARTSTRKQNYMMNFSRQHGLRHFYNRRRR
notes: also called Fc-WT
- Kd [3]: 610 nM
- koff [3]: 0.00573 s⁻¹
- kon [3]: 9400 M⁻¹ s⁻¹
- fold less affinity than VEGF [4]: 100 fold

B4: Fc-fusion CTR-RELN H3447R (184J pfcn-huIgG2-C-termH3447R) (Fc fusion)
chain: B3 chain with H252R
notes: also called Fc-H3447R
- Kd [3]: 79.3 nM
- koff [3]: 0.00102 s⁻¹
- kon [3]: 12900 M⁻¹ s⁻¹
- fold affinity against wild-type CTR-RELN [4]: 10 fold

Further lines, results first:

- Thioflavin T fluorescence assay of Abeta aggregation, fold aggregation against H3447K short [1]: ~3 fold
Binder: RKQNYMMNFSRQHGLRDFYNRRRR [Reelin CTR peptide H3447D short]

- binding result [2]: no binding
- binding result (VLDLr (8444-VL, R&D)): no binding
B2: C-terminal region of RELN (CTR-RELN) H3447R recombinant peptide, long (peptide)
peptide: B1 peptide with H17R
notes: also called H3447R long; C-terminal RELN H3447R uncleaved
